From publication PMC3773400, “Intracellular Secretory Leukoprotease Inhibitor Modulates Inositol 1,4,5-Triphosphate Generation and Exerts an Anti-Inflammatory Effect on Neutrophils of Individuals with Cystic Fibrosis and Chronic Obstructive Pulmonary Disease” (BioMed Research International, 2013)

Assays:
calpain 1 = calpain 1 (UniProt P07384 1-714); test: enzyme inhibition kinetics (Calpain-Glo protease assay); cleavage of the calpain substrate Suc-LLVY-aminoluciferin, luminescence; calpastatin 0-80 nM, rhSLPI 0-640 nM; Ki by global curve fit in GraphPad Prism 4.03; details: both partners purified
Sequence of calpain 1 (P07384 2-714, chain 1 of 2): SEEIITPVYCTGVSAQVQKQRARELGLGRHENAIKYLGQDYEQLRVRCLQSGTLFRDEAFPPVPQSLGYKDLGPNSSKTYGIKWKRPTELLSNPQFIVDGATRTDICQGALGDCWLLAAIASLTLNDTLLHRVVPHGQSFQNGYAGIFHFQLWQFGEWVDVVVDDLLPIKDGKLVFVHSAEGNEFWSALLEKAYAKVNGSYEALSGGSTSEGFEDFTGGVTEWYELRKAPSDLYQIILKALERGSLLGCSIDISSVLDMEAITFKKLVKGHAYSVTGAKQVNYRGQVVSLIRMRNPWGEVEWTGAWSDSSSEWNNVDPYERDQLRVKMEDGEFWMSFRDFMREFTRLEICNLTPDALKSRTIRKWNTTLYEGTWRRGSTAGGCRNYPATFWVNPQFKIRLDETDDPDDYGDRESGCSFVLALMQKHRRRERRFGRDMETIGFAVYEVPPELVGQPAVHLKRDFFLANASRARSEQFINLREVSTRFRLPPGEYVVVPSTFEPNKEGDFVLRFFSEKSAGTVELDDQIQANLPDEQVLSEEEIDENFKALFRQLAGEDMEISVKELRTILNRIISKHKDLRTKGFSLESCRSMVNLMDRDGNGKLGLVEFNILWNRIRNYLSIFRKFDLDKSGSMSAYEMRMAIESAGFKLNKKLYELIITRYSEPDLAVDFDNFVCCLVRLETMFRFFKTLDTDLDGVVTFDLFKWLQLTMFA
Sequence of calpain 1 (P04632 whole entry, chain 2 of 2, further chain): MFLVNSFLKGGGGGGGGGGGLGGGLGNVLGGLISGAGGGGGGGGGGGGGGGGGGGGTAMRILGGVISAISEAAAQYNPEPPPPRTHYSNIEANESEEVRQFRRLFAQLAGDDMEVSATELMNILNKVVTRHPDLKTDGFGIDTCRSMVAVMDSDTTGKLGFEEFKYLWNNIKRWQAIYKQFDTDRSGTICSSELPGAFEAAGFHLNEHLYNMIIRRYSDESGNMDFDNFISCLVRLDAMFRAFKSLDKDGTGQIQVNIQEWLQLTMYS

calpain 2 = calpain 2 (UniProt P17655 20-700); test: as above; details: both partners purified

- Ki (calpain 1): 5.55 nM
- Ki (calpain 2): 1.55 nM
B1: calpastatin (natural protein)
chain: MNPTETKAIPVSQQMEGPHLPNKKKHKKQAVKTEPEKKSQSTKLSVVHEKKSQEGKPKEHTEPKSLPKQASDTGSNDAHNKKAVSRSAEQQPSEKSTEPKTKPQDMISAGGESVAGITAISGKPGDKKKEKKSLTPAVPVESKPDKPSGKSGMDAALDDLIDTLGGPEETEEENTTYTGPEVSDPMSSTYIEELGKREVTIPPKYRELLAKKEGITGPPADSSKPIGPDDAIDALSSDFTCGSPTAAGKKTEKEESTEVLKAQSAGTVRSAAPPQEKKRKVEKDTMSDQALEALSASLGTRQAEPELDLRSIKEVDEAKAKEEKLEKCGEDDETIPSEYRLKPATDKDGKPLLPEPEEKPKPRSESELIDELSEDFDRSECKEKPSKPTEKTEESKAAAPAPVSEAVCRTSMCSIQSAPPEPATLKGTVPDDAVEALADSLGKKEADPEDGKPVMDKVKEKAKEEDREKLGEKEETIPPDYRLEEVKDKDGKPLLPKESKEQLPPMSEDFLLDALSEDFSGPQNASSLKFEDAKLAAAISEVVSQTPASTTQAGAPPRDTSQSDKDLDDALDKLSDSLGQRQPDPDENKPMEDKVKEKAKAEHRDKLGERDDTIPPEYRHLLDDNGQDKPVKPPTKKSEDSKKPADDQDPIDALSGDLDSCPSTTETSQNTAKDKCKKAASSSKAPKNGGKAKDSAKTTEETSKPKDD
modifications: Paper names only 'calpastatin (endogenous calpain inhibitor)'. Supplier, species, isoform and limits are not stated. Full-length human canonical form is assumed; a commercial single inhibitory domain
